Data as given in article PMC6128766 (Nature structural & molecular biology, 2018).

Target: the molecule itself
Assay: cryo-EM structure

B1: TRPV3(Y564A) (natural protein, mouse, UniProt Q8K424 1-791, looked up)
chain: MNAHSKEMAPLMGKRTTAPGGNPVVLTEKRPADLTPTKKSAHFFLEIEGFEPNPTVTKTSPPIFSKPMDSNIRQCLSGNCDDMDSPQSPQDDVTETPSNPNSPSANLAKEEQRQKKKRLKKRIFAAVSEGCVEELRELLQDLQDLCRRRRGLDVPDFLMHKLTASDTGKTCLMKALLNINPNTKEIVRILLAFAEENDILDRFINAEYTEEAYEGQTALNIAIERRQGDITAVLIAAGADVNAHAKGVFFNPKYQHEGFYFGETPLALAACTNQPEIVQLLMENEQTDITSQDSRGNNILHALVTVAEDFKTQNDFVKRMYDMILLRSGNWELETMRNNDGLTPLQLAAKMGKAEILKYILSREIKEKPLRSLSRKFTDWAYGPVSSSLYDLTNVDTTTDNSVLEIIVYNTNIDNRHEMLTLEPLHTLLHTKWKKFAKYMFFLSFCFYFFYNITLTLVSYYRPREDEDLPHPLALTHKMSWLQLLGRMFVLIWATCISVKEGIAIFLLRPSDLQSILSDAWFHFVFFVQAVLVILSVFLYLFAYKEYLACLVLAMALGWANMLAYTRGFQSMGMYSVMIQKVILHDVLKFLFVYILFLLGFGVALASLIEKCSKDKKDCSSYGSFSDAVLELFKLTIGLGDLNIQQNSTYPILFLFLLITYVILTFVLLLNMLIALMGETVENVSKESERIWRLQRARTILEFEKMLPEWLRSRFRMGELCKVADEDFRLCLRINEVKWTEWKTHVSFLNEDPGPIRRTADLNKIQDSSRSNSKTTLYAFDELDEFPETSV
binding result: binds
